The values that follow come from patent US20230159643A1 (H LUNDBECK A S, published 2023).

What all share (assay): BLI Octet 384RED, antibody on Protein A sensor, Sortilin construct in solution
In experiment [1] the target is T1, Sortilin SORTECDBAP_tetra (tetraodon).
T1 construct: Fully tetraodon Sortilin ECD with BAP tag; also called tetraodon Sortilin
T1 chain: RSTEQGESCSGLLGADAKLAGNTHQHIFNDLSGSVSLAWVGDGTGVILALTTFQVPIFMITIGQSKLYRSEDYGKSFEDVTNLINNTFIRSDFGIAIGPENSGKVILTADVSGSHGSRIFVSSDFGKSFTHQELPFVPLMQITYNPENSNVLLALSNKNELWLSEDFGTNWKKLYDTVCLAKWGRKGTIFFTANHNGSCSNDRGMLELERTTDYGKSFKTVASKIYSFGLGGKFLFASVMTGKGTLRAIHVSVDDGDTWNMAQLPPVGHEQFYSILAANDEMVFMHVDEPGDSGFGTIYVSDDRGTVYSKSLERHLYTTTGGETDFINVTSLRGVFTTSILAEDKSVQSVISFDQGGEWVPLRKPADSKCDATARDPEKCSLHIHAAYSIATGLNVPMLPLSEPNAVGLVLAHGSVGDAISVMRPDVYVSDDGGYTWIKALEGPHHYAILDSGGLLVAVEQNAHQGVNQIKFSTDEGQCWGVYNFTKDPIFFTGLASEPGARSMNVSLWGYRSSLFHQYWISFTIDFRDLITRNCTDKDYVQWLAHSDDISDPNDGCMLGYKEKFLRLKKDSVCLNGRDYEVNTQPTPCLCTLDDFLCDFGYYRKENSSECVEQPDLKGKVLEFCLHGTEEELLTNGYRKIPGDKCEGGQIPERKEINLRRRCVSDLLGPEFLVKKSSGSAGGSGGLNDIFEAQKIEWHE
The method, then:
(§1) Binding kinetics of anti-Sortilin HuMab antibodies to Sortilin were determined using Octet 384RED (Fortebio, Menlo Park, USA). HuMab solutions of 2 μg/ml were made by dilution in sample diluent (ForteBio, art. No. 18-5028). Prot A sensors (ForteBio, art. no. 18-0004) were prewetted with kinetics buffer (1:10 sample diluent in PBS) for at least 600 seconds. Subsequently sensors were immobilized with HuMab solution for 600 seconds. A baseline response was obtained by dipping in kinetics buffer for 120 seconds. Association of SORTECD constructs was performed during a 1000 seconds incubation. This was followed by dissociation in kinetics buffer for 100 seconds. After dissociation, sensors were regenerated (10 mM Glycine pH 1.0) and neutralized (kinetics buffer) 3 times for 5 seconds. […] A molecular weight of 76.8 kDA was used for SORTECDHis. Data was fitted with ForteBio Analysis 6.4 software, using a global full fit.

Experiment [2] concerns the target T2, Sortilin SORTECDBAP_hB01-05 (human/tetraodon chimera).
T2 construct: Shuffle construct
T2 chain: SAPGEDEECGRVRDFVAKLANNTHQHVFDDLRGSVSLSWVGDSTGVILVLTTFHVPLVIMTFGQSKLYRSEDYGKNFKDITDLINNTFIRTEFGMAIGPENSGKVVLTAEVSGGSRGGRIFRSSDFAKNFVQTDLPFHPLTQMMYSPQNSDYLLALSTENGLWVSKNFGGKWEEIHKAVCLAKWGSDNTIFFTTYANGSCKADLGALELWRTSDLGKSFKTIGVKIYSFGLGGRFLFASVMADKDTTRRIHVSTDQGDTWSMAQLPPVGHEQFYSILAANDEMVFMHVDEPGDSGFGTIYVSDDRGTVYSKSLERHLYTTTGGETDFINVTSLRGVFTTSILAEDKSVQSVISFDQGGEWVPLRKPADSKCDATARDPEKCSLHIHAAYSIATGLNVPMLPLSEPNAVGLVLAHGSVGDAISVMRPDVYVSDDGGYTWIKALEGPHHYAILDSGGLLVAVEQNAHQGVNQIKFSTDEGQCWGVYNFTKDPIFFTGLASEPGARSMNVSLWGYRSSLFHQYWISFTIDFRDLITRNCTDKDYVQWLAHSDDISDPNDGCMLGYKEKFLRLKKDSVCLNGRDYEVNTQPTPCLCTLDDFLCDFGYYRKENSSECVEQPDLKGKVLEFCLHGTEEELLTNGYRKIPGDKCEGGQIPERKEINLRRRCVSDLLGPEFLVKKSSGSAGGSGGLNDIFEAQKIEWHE
Here is the method: as §1

In a further experiment the target is T3, Sortilin hSORTECDBAP (human, UniProt Q99523 78-755, biotinylated on the BAP tag by co-expression of biotin ligase).
T3 construct: Soluble extracellular region (ECD, aa 1-755) with BAP tag
T3 sequence: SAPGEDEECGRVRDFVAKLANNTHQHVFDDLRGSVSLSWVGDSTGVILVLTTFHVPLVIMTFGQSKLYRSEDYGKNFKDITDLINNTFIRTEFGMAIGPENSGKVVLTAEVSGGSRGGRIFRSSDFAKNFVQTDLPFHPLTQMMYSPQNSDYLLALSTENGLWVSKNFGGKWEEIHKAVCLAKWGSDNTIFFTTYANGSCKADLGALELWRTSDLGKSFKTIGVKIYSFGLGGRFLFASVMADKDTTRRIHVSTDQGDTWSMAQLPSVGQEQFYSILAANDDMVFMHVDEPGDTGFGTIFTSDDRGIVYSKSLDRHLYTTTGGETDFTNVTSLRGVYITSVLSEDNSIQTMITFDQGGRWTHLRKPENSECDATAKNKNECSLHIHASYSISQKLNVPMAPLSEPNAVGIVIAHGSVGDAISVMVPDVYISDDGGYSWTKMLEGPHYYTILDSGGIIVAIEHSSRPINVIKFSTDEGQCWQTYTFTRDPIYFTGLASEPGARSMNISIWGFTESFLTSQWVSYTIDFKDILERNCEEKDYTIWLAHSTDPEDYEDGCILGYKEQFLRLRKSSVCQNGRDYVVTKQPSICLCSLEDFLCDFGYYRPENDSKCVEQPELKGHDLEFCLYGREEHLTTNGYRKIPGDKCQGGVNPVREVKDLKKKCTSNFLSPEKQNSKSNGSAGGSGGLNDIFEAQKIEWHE
Here is the method:
as §1

B1: 1320 (antibody, V domains shown)
VH: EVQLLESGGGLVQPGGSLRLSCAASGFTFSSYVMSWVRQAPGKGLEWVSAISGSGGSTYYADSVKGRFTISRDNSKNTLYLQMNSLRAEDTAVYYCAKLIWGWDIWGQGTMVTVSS
VL: EIVLTQSPATLSLSPGERATLSCRASQSVSSYLAWYQQRPGQAPRLLIYDASNRATGIPARFSGSGSGTDFTLSISSLEPEDFAVYYCQQRTNWSITFGQGTRLEIK
notes: also called IgG1-6003-1320; Antibody 1320
The EC50 is the concentration needed to bring the measured effect to its halfway point. Higher therefore signals a need for much substance. As to B1, the binding result in experiment [1] and in experiment [2] was “no binding (tested: 10 µg/ml construct)” throughout. The molecule also registered an EC50 in the experiment with Sortilin hSORTECDBAP of 0.0191 µg/mL.
